In test [1] the target is T1, Recombinant human NRP1 with His Tag (Sino Biological Inc.; Cat #1001-H08H) (human), O14786.
The target in test [2] is T1, Recombinant human NRP1 with His Tag …. This is another data set of the same source.
Test [3] shares this target. This is another data set of the same source.
Test [4] has the same target. In words: BLI (Octet Red96), biotinylated peptide on streptavidin sensor, NRP1 in solution. Background: BLI is a label-free optical method that tracks binding on a fibre tip over time.

Several values for one entry are separate records, joined by “and”; a condition that tells them apart may be missing. Equal values may be shown once. Read-outs that look alike come from different tables or passages of the source. Bridge positions count the residues as written; N and C are the ends. Ends that are not written are not given here. * marks the point of attachment. Biotin = O=C1N[C@H]2[C@H](CS[C@H]2CCCCC(=O)*)N1; Capped = not defined here

T1 sequence (O14786 other isoform, or with tags, fused parts or gaps H08H H08H limits assumed): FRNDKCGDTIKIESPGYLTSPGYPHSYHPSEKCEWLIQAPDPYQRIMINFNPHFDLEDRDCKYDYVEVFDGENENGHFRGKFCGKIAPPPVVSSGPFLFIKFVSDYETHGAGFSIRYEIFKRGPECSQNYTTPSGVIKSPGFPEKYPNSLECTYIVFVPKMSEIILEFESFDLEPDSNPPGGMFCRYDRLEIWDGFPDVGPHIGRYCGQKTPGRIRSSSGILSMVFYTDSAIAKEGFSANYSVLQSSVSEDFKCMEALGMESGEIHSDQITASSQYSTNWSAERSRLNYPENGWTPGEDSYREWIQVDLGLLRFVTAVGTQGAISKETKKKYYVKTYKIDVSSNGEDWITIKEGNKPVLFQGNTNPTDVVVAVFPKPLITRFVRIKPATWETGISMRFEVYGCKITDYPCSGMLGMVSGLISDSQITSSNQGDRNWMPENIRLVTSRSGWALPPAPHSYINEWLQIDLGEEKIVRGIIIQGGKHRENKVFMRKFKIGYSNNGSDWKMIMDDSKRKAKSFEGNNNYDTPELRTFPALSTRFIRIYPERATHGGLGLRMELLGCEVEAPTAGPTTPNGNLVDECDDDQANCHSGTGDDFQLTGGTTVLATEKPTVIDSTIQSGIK

B1: NH2(Biotin)-C-Y-G-P-Q-C-L-C(Capped)-R-COOH with S-S between the first two C (peptide)
peptide: Biotin-CYGPQCLC(Capped)R-OH
modifications: disulfide 1-6; reading uncertain
Take B1: in test [1], the Kd is 410 nM.

B2: tri-peptide 1/2/3 from trypsin digestion of Lys-27 biotinylated TM601 (UM-1438-118) (peptide)
chain 1: MCMPCFTTDHQMAR
chain 2: GKCYGPQCLCR
chain 3: KCDDCCGGK
modifications: not fully specified; modifications not checked
As to B2, the Kd in test [2] is 112 nM and 187 nM.

B3: NH2(Biotin)-C(Capped)-Y-G-P-Q-C(Capped)-L-C(Capped)-R-COOH (peptide)
peptide: Biotin-C(Capped)YGPQC(Capped)LC(Capped)R-OH
modifications: reading uncertain; also: printed as NH2(Biotin)-C(Capped)-Y-G-P-Q-C(Capped)-L-C(Capped)-R-COOH
In the case of B3, in test [3], the Kd was 153 nM and 335 nM.

B4: NH2(Biotin)-C(Capped)-L-C(Capped)-R-COOH (peptide)
peptide: Biotin-C(Capped)LC(Capped)R-OH
modifications: reading uncertain; also: printed as NH2(Biotin)-C(Capped)-L-C(Capped)-R-COOH
As to B4, the Kd in test [4] stood at 335 nM.

B5: NH2(Biotin)-Y-G-P-Q-C(Capped)-L-C(Capped)-R-COOH (peptide)
peptide: Biotin-YGPQC(Capped)LC(Capped)R-OH
modifications: reading uncertain; also: printed as NH2(Biotin)-Y-G-P-Q-C(Capped)-L-C(Capped)-R-COOH
On to B5, for which the Kd in test [1] is 300 nM and 294 nM.

B6: tri-peptide 1/2/3 from trypsin digestion of N-terminal biotinylated TM601 (UM-1438-127-1) (peptide)
chain 1: MCMPCFTTDHQMAR
chain 2: CYGPQCLCR
chain 3: KCDDCCGGK
modifications: not fully specified (N-terminus); cysteine pairing not given here
As to B6, the Kd in test [2] is 173 nM and 70 nM.

In general, Kd refers to the equilibrium constant for the complex coming apart.

The record behind these values is patent US20200206312A1.
